According to article PMC2655680:
pKd: −log10 of the molar value.

These substances were tested against PNK-FHA (FHA domain of human polynucleotide kinase 3'-phosphatase, amino acids 1-109) (human) (UniProt Q96T60) (assay: ITC).

Substance | pKd | stoichiometry N
XRCC1 peptide YAGpSpTDENpTDSE, phosphorylated on Ser518, Thr519 and Thr523 | – | 0.46
XRCC1 peptide YAGSTDENpTDSE, phosphorylated on Thr523 | 4.87 | –
XRCC1 peptide YAGpSTDENpTDSE, phosphorylated on Ser518 and Thr523 | 4.62 | –

More lines, in order of rising pKd, values ahead:

pKd | stoichiometry N | Substance
4.98 | – | XRCC1 peptide YAGSpTDENTDSE, phosphorylated on Thr519
5.91 | 0.51 | XRCC1 peptide YAGpSpTDENTDSE, phosphorylated on Ser518 and Thr519
6.12 | 0.51 | XRCC1 peptide YAGSpTDENpTDSE, phosphorylated on Thr519 and Thr523

Biological target: PNK-FHA (FHA domain of human polynucleotide kinase 3'-phosphatase, amino acids 1-109) (human) (UniProt Q96T60)
Assay: ITC
Remark: another data set of the same source

pKd | Substance
6.15 | XRCC1 peptide YAGSpTDENpTDSE, phosphorylated on Thr519 and Thr523
